Source: US20260232827A1 (Zymeworks, published 2026)
One block for each binder: values may come before it.

Key:
[1] = target: T1, human FcγR I CD64 (Sino Biological Inc. 10256-H08H) (human, UniProt P12314 16-288); assay: SPR (Biacore T200), antibody captured on protein A, FcγR as analyte, multicycle, 1:1 fit
T1 construct: Bought reagent
Procedure: (§1) Approximately 400-600 RUs of each antibody (2 μg/mL) were captured on the protein A surface on flow cell 2, 3 and 4 by injecting at 10 μL/min for 60 s. Flow cell 1 was used as a reference surface. […] Each in-house FcγR with five concentrations were flowed as analyte using single-cycle kinetics strategy. The flow rate of FcγRs was 50 L/min with contact time of 40 sec and dissociation time of 120 sec. For the high affinity FcγRI CD64, multicycle kinetics were applied. The flow rate of the analyte was 100 L/min with contact time of 100 sec and dissociation time of 650 sec. Blank buffer control was injected using the same flow rate and contact time for each cycle. Surface regeneration was accomplished using 10 mM glycine-HCl, pH 1.5 (Cytiva©, BR100354) for 30 sec with a flow rate of 50 μL/min after each cycle. Binding constants and the maximum observed binding signal (Rmax) were determined using the Biacore™ T200 Evaluation software (version 3.0; GE Healthcare). For single-cycle kinetics, blank-subtracted sensorgrams were analyzed using steady state affinity fitting model. For multicycle kinetics, results were fit to the 1:1 Langmuir binding model.

[2] = target: T2, human FcγR IIA H131 CD32aH (v5774) (human, UniProt P12318 34-217, limits assumed); assay: SPR (Biacore T200), antibody captured on protein A, FcγR as analyte, single-cycle, steady-state fit;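 note: five FcγR concentrations per single cycle, 40 s association then 120 s dissociation, responses corrected against a reference flow cell and blank buffer injections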
T2 construct: In-house reagent
T2 sequence (looked up): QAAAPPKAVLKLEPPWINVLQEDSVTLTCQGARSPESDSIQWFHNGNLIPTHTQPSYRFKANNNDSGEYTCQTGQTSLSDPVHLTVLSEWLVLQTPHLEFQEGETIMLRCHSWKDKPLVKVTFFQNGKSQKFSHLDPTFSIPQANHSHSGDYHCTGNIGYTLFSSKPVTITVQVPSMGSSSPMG
Procedure: as §1

[3] = target: T3, human FcγR IIB Y160 CD32bY (v5777) (human, UniProt P31994 43-217, limits assumed); assay: as above
T3 construct: In-house reagent
T3 sequence (looked up): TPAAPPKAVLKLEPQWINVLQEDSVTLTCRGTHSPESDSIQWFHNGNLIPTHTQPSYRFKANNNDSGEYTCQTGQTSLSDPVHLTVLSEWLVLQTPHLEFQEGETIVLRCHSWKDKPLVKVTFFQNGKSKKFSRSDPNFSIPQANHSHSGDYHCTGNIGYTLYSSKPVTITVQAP
Procedure: as §1

[4] = target: T4, human FcγR IIIA F159 CD16aF (v5772) (human, UniProt P08637 17-208, limits assumed); assay: as above
T4 construct: In-house reagent
T4 sequence (P08637 17-208 limits assumed): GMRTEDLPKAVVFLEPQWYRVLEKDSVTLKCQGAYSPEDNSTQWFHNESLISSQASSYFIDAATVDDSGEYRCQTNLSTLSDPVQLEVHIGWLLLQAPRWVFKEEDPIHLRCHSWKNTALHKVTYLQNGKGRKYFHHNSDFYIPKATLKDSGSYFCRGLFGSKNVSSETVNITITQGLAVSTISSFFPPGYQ
Procedure: as §1

Biotinylated human FcRn = target: T5, Biotinylated human FcRn (human, UniProt P55899 24-297; P61769 21-119, limits assumed, biotinylated (site not stated)); assay: SPR (Biacore T200), biotinylated FcRn on neutravidin, antibody as analyte, pH 5.9, steady-state fit
T5 construct: also called Biotinlated human FcRn; human neonatal fragment crystallizable receptor (FcRn)

T1 sequence (P12314 16-288 limits assumed): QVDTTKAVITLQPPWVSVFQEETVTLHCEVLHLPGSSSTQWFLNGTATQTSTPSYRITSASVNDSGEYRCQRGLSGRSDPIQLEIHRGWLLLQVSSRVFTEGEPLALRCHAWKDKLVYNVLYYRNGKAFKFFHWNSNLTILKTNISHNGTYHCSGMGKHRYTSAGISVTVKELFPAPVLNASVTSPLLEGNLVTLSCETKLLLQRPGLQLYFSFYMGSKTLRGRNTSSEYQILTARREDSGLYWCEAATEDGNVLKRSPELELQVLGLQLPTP

Binding percentage [1]: 97.7% | Binding percentage [2]: 92.1% | Kd [2]: 1010 nM | Binding percentage [3]: 121% | Kd [3]: 5780 nM | Binding percentage [4]: 98.7% | Kd [4]: 2380 nM | Binding percentage (Biotinylated human FcRn): 20.3% | Kd (Biotinylated human FcRn): 61.8 nM
B1: Upifitamab (v40885, wild-type Fc) (antibody, human IgG1, kappa)
heavy 1: GQVQLVQSGAEVVKPGASVKMSCKASGYTFTGYNIHWVKQAPGQGLEWIGAIYPGNGDTSYKQKFRGRATLTADTSTSTVYMELSSLRSEDSAVYYCARGETARATFAYWGQGTLVTVSSASTKGPSVFPLAPSSKSTSGGTAALGCLVKDYFPEPVTVSWNSGALTSGVHTFPAVLQSSGLYSLSSVVTVPSSSLGTQTYICNVNHKPSNTKVDKKVEPKSCDKTHTCPPCPAPELLGGPSVFLFPPKPKDTLMISRTPEVTCVVVDVSHEDPEVKFNWYVDGVEVHNAKTKPREEQYNSTYRVVSVLTVLHQDWLNGKEYKCKVSNKALPAPIEKTISKAKGQPREPQVYVYPPSRDELTKNQVSLTCLVKGFYPSDIAVEWESNGQPENNYKTTPPVLDSDGSFALVSKLTVDKSRWQQGNVFSCSVMHEALHNHYTQKSLSLSPG
heavy 2: not shown
light: GDIQMTQSPSSLSASVGDRVTITCSASQDIGNFLNWYQQKPGKTVKVLIYYTSSLYSGVPSRFSGSGSGTDYTLTISSLQPEDFATYYCQQYSKLPLTFGQGTKLELKRTVAAPSVFIFPPSDEQLKSGTASVVCLLNNFYPREAKVQWKVDNALQSGNSQESVTEQDSKDSTYSLSSTLTLSKADYEKHKVYACEVTHQGLSSPVTKSFNRGEC

Binding percentage [1]: 76.9% | Kd [1]: 0.0966 nM | Binding percentage [2]: 69.6% | Kd [2]: 746 nM | Binding percentage [3]: 88.6% | Kd [3]: 3740 nM | Binding percentage [4]: 71.5% | Kd [4]: 2020 nM | Binding percentage (Biotinylated human FcRn): 25.1% | Kd (Biotinylated human FcRn): 68.2 nM
B2: Lifastuzumab (v18993, wild-type Fc) (antibody, human IgG1, kappa)
heavy 1: GEVQLVESGGGLVQPGGSLRLSCAASGFSFSDFAMSWVRQAPGKGLEWVATIGRVAFHTYYPDSMKGRFTISRDNSKNTLYLQMNSLRAEDTAVYYCARHRGFDVGHFDFWGQGTLVTVSSASTKGPSVFPLAPSSKSTSGGTAALGCLVKDYFPEPVTVSWNSGALTSGVHTFPAVLQSSGLYSLSSVVTVPSSSLGTQTYICNVNHKPSNTKVDKKVEPKSCDKTHTCPPCPAPELLGGPSVFLFPPKPKDTLMISRTPEVTCVVVDVSHEDPEVKFNWYVDGVEVHNAKTKPREEQYNSTYRVVSVLTVLHQDWLNGKEYKCKVSNKALPAPIEKTISKAKGQPREPQVYVYPPSRDELTKNQVSLTCLVKGFYPSDIAVEWESNGQPENNYKTTPPVLDSDGSFALVSKLTVDKSRWQQGNVFSCSVMHEALHNHYTQKSLSLSPG
heavy 2: not shown
light: GDIQMTQSPSSLSASVGDRVTITCRSSETLVHSSGNTYLEWYQQKPGKAPKLLIYRVSNRFSGVPSRFSGSGSGTDFTLTISSLQPEDFATYYCFQGSFNPLTFGQGTKVEIKRTVAAPSVFIFPPSDEQLKSGTASVVCLLNNFYPREAKVQWKVDNALQSGNSQESVTEQDSKDSTYSLSSTLTLSKADYEKHKVYACEVTHQGLSSPVTKSFNRGEC
notes: Two different heavy chains (heterodimeric Fc)
